Blank lines part the entries; values can stand above or below the binder they belong to.
How the values were obtained:
Human IL-18 [1] = target: T1, Human IL-18 (human, UniProt Q14116 37-193); experiment: cell-based or functional assay
T1 sequence: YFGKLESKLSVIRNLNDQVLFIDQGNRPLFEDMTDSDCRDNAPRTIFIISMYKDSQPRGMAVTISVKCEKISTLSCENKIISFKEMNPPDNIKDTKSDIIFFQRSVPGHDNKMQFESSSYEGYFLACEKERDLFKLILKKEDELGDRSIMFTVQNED

Human IL-23 [2] = target: T2, Human IL-23 (human, UniProt Q9NPF7 20-189; P29460 23-328); experiment: cell-based or functional assay
T2 sequence 1: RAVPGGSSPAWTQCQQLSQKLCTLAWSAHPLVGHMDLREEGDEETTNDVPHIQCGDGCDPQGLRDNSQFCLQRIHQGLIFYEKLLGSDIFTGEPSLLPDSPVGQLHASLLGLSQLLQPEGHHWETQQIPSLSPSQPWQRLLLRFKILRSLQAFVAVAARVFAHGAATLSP
T2 sequence 2: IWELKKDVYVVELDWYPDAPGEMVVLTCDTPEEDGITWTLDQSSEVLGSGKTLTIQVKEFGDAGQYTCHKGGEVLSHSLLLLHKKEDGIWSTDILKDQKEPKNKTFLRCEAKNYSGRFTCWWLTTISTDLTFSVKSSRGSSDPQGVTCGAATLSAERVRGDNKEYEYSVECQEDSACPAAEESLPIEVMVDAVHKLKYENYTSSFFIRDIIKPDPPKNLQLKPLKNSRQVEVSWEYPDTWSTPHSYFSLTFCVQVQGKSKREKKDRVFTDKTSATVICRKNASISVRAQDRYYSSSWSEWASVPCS

Human IL-23 [3] = target: T2, Human IL-23; experiment: cell-based or functional assay; remark: listed apart in the source
Human IL-18 [4] = target: T1, Human IL-18; experiment: SPR (Biacore), antibody captured on Protein A/G, cytokine as analyte, 25 C
Procedure: (§1) A heterodimeric bsAb, alongside anti-IL-18 and anti-IL-23 common light chain control bispecific antibodies, were assessed for binding to human and cyno IL-18 and IL-23, using the Biacore 8K and T200 (Cytiva) surface plasmon resonance (SPR) instruments. All reagents were generated recombinantly in-house with the exception of Rhesus monkey IL-18 which was purchased from R&D systems (Cat #2548-RM-025/CF). Rhesus and cynomolgus monkey amino acid sequences are identical. Therefore, the protein will be referred to as cynomolgus monkey IL-18.
(§2) Heterodimeric bsAb, anti-IL-18 and anti-IL-23 common light chain bispecific control molecules were assessed for binding to recombinant human and cynomolgus monkey IL-18 and IL-23 using the Biacore 8K and T200 (Cytiva) SPR instruments. The antibodies were captured onto Protein A/G, which was immobilised onto flow cell 2 of 8 channels (Biacore 8K) or flow cells 2, 3 and 4 (Biacore T200) of a CM5 series S sensor chip by primary amine coupling. The IL-18 or IL-23 analytes were passed over the captured antibodies at varying concentrations between 0.04-25 nM. The association phase was for 240 seconds at 30 μl/min, followed by a dissociation step of up to 1200 seconds. A 0 nM (i.e., buffer alone) injection was used to double reference the binding curves. Regeneration of the chip surface between cycles was carried out using 50 mM NaOH. The assay was run at 25° C. in HBS-EP⁺ buffer. Biacore 8K control software version 3.0 was used to run the experiment. Data was analysed using Biacore 8K Insight evaluation software version 3.0. Biacore T200 control software version 1.0 was used to run the experiment. Data was analysed using Biacore T200 evaluation software version 2.0. Affinities and kinetics were determined using the 1:1 kinetic fit inherent to the software where possible. All affinity values generated using both instruments were combined to determine geometric mean values.

Human IL-23 [5] = target: T2, Human IL-23; experiment: SPR (Biacore), antibody captured on Protein A/G, cytokine as analyte, 25 C, 1:1 fit, n=1
Procedure: as §1, §2

Human recombinant IL-12 = target: T3, Human recombinant IL-12 (human, UniProt P29459 23-219); experiment: cell-based or functional assay
T3 sequence 1: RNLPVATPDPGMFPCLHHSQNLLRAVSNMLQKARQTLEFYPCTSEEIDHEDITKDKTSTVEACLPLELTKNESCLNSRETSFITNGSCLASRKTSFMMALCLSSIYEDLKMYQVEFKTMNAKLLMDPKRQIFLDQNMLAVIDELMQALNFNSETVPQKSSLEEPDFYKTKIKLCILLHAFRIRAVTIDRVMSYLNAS
T3 sequence 2: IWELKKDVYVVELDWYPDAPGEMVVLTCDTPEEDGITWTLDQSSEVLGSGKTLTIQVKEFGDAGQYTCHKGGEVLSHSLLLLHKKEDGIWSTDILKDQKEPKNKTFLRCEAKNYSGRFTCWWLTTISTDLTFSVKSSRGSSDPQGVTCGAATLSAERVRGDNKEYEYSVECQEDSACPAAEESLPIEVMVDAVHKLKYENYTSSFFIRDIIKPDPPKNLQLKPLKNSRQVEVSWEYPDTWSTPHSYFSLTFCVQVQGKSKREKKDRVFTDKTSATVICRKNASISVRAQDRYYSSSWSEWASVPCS

Human IL-18 [6] = target: T1, Human IL-18; experiment: cell-based or functional assay; remark: listed apart in the source
Human IL-18 [7] = target: T1, Human IL-18; experiment: SPR (Biacore), antibody captured on Protein A/G, cytokine as analyte, 25 C, 1:1 fit, n=1
Procedure: as §1, §2

- pIC50 (GeoMean), neutralisation of human IL-18-induced IFNγ secretion by KG-1 cells (Human IL-18 [1]): < 8.48
- IC50 Parent (pM), inhibition of IL-23-induced pSTAT3 in T cells of human whole blood (run with Heterodimeric bsAb-1) (Human IL-23 [2]): 282 pM
- IC50 Parent (pM), inhibition of IL-23-induced pSTAT3 in T cells of human whole blood (run with Heterodimeric bsAb-2) (Human IL-23 [2]): 286 pM
- IC50 Parent (pM), inhibition of human IL-23-induced mouse IL-17A secretion in mouse splenocytes (run with Heterodimeric bsAb-1) (Human IL-23 [3]): 60 pM
- IC50 Parent (pM), inhibition of human IL-23-induced mouse IL-17A secretion in mouse splenocytes (run with Heterodimeric bsAb-2) (Human IL-23 [3]): 53.3 pM
- binding result (Human IL-18 [4]): no binding (tested: 0.04-25 nM analyte)
- Kd (Human IL-23 [5]): 0.163 nM
B1: IL-23 control 2 (antibody, V domains shown)
VH: QVQLVQSGAEVKKPGSSVKVSCKASGYTFTDQTIHWMRQAPGQGLEWIGYIYPRDDSPKYNENFKGKVTITADKSTSTAYMELSSLRSEDTAVYYCAIPDRSGYAWFIYWGQGTLVTVSS
VL: DIQMTQSPSSLSASVGDRVTITCKASRDVAIAVAWYQQKPGKVPKLLIYWASTRHTGVPSRFSGSGSRTDFTLTISSLQPEDVADYFCHQYSSYPFTFGSGTKLEIK
notes: Anti-IL-23 (risankizumab) mAb plus Het-mAb Fc mutations of Heterodimeric bsAbs 1-4 and silencing (LAGA) mutations; also called risankizumab variable domains

- IC50 Parent (pM), inhibition of IL-23-induced pSTAT3 in T cells of human whole blood (run with Heterodimeric bsAb-3) (Human IL-23 [2]): 637 pM
- IC50 Parent (pM), inhibition of human IL-23-induced mouse IL-17A secretion in mouse splenocytes (run with Heterodimeric bsAb-3) (Human IL-23 [3]): 687 pM
- binding result (Human IL-18 [4]): no binding (tested: 0.04-25 nM analyte)
- Kd (Human IL-23 [5]): 0.576 nM
B2: IL-23 control 3 (antibody, V domains shown)
VH: QVQLVQSGAEVKKPGASVKVSCKASGYIFITYWMTWVRQAPGQGLEWMGQIFPASGSADYNEKFEGRVTMTTDTSTSTAYMELRSLRSDDTAVYYCARGGGGFAYWGQGTLVTVSS
VL: DIQMTQSPSSLSASVGDRVTITCRTSENIYSYLAWYQQKPGKAPKLLIYNAKTLAEGVPSRFSGSGSGTDFTLTISSLQPEDFATYYCQHHYGIPFTFGQGTKVEIK
notes: Anti-IL-23 (tildrakizumab) plus Het-mAb Fc mutations of Heterodimeric bsAbs 1-4 and half-life extending (YTE) mutations; also called tildrakizumab variable domains

- IC50 (pM), inhibition of IL-12-induced IFNγ secretion by NK-92 cells (Human recombinant IL-12): 875 pM
- IC50 (ug/mL), inhibition of IL-12-induced IFNγ secretion by NK-92 cells (Human recombinant IL-12): 0.13 µg/mL
B3: Ustekinumab (antibody, V domains shown)
VH: EVQLVQSGAEVKKPGESLKISCKGSGYSFTTYWLGWVRQMPGKGLDWIGIMSPVDSDIRYSPSFQGQVTMSVDKSITTAYLQWNSLKASDTAMYYCARRRPGQGYFDFWGQGTLVTVSS
VL: DIQMTQSPSSLSASVGDRVTITCRASQGISSWLAWYQQKPEKAPKSLIYAASSLQSGVPSRFSGSGSGTDFTLTISSLQPEDFATYYCQQYNIYPYTFGQGTKLEIK

- IC50 (pM, Mean), neutralisation of human IL-18-induced IFNγ secretion by KG-1 cells (Human IL-18 [1]): 105 pM
- pIC50 (GeoMean), neutralisation of human IL-18-induced IFNγ secretion by KG-1 cells (Human IL-18 [1]): 9.98
- IC50 Heterodimeric bsAbs (% of Parent IL-18 control 3), LPS + IL12-induced IFN-γ in human whole blood (Human IL-18 [6]): 280 % of Parent
- IC50 Heterodimeric bsAbs (nM), inhibition of LPS + IL12-induced IFN-γ in human whole blood (Human IL-18 [6]): 21.7 nM
- IC50 Heterodimeric bsAbs (% of Parent IL-23 control 3), IL-23-induced pSTAT3 in T cells of human whole blood (Human IL-23 [2]): 100 % of Parent
- IC50 Heterodimeric bsAbs (pM), inhibition of IL-23-induced pSTAT3 in CD3+CD161+ T cells of human whole blood (Human IL-23 [2]): 640 pM
- IC50 Heterodimeric bsAb (% of Parent IL-23 control 3), IL-23-induced mouse IL-17A in mouse splenocytes (Human IL-23 [3]): 387 % of Parent
- IC50 Heterodimeric bsAb (pM), inhibition of human IL-23-induced mouse IL-17A secretion in mouse splenocytes (Human IL-23 [3]): 2670 pM
- Kd (Human IL-18 [7]): < 0.01 nM
- Kd (Human IL-23 [5]): 0.499 nM
B4: Heterodimeric bsAb 3 (bispecific antibody, human IgG1, kappa)
heavy 1: QVQLVQSGAEVKKPGASVKVSCKVSGEISTGYYFHWVRQAPGKGLEWMGRIDPEDDSTKYAERFKDRVTMTEDTSTDTAYMELSSLRSEDTAVYYCTTWRIYRDSSGRPFYVMDAWGQGTLVTVSSASTKGPSVFPLAPSSKSTSGGTAALGCEVTDYFPEPVTVSWNSGALTSGVHTFPAVLESSGLYSLSSVVTVPSSSLGTQTYICNVNHKPSNTKVDKKVEPKSCDKTHTCPPCPAPELAGAPSVFLFPPKPKDTLMISRTPEVTCVVVDVSHEDPEVKFNWYVDGVEVHNAKTKPREEQYNSTYRVVSVLTVLHQDWLNGKEYKCKVSNKALPAPIEKTISKAKGQPREPQVYVYPPSRDELTKNQVSLTCLVKGFYPSDIAVEWESNGQPENNYKTTPPVLDSDGSFALVSKLTVDKSRWQQGNVFSCSVMHEALHNHYTQKSLSLSPGK
light 1: DIQMTQSPSSVSASVGDRVTITCLASEDIYTYLTWYQQKPGKAPKLLIYGANKLQDGVPSRFSGSGSGTDYTLTISSLQPEDFATYYCLQGSKFPLTFGQGTKLEIKRTVAAPSVFIFPPSDERLKSGTASVVCLLNNFYPREAKVQWKVDNALQSGNSQESVTEQDSKDSTYSLSSRLTLSKADYEKHKVYACEVTHQGLSSPVTKSFNRGEC
heavy 2: QVQLVQSGAEVKKPGASVKVSCKASGYIFITYWMTWVRQAPGQGLEWMGQIFPASGSADYNEKFEGRVTMTTDTSTSTAYMELRSLRSDDTAVYYCARGGGGFAYWGQGTLVTVSSASTKGPSVFPLAPSSKSTSGGTAALGCRVKDYFPEPVTVSWNSGALTSGVHTFPAVLQSSGLYSLSSVVTVPSSSLGTQTYICNVNHKPSNTKVDKKVEPKSCDKTHTCPPCPAPELAGAPSVFLFPPKPKDTLMISRTPEVTCVVVDVSHEDPEVKFNWYVDGVEVHNAKTKPREEQYNSTYRVVSVLTVLHQDWLNGKEYKCKVSNKALPAPIEKTISKAKGQPREPQVYVLPPSRDELTKNQVSLLCLVKGFYPSDIAVEWESNGQPENNYLTWPPVLDSDGSFFLYSKLTVDKSRWQQGNVFSCSVMHEALHNHYTQKSLSLSPGK
light 2: DIQMTQSPSSLSASVGDRVTITCRTSENIYSYLAWYQQKPGKAPKLLIYNAKTLAEGVPSRFSGSGSGTDFTLTISSLQPEDFATYYCQHHYGIPFTFGQGTKVEIKRTVAAPSVFIFPPSDEELKSGTASVECLLNNFYPREAKVQWKVDNALQSGNSQESVTEQDSKDSTYSLSSTLTLSKADYEKHKVYACEVTHQGLSSPVTKSFNRGEC
notes: Het-mAb format: anti-IL-18 mAb on ZA and anti-IL-23 mAb (tildrakizumab) on ZB, with Fc heterodimerisation and silencing mutations
